The target of the experiment is T1, MAGE-B2 (peptide MB2-231) peptide on HLA-A*02:01 (human).
T1 peptide: GVYDGEEHSV
Description: multimer staining.

B1: MAGE-B2 TCR of SEQ ID NOs 3 and 5 (TCR, V domains shown)
Valpha: GNSVTQMEGPVTLSEEAFLTINCTYTATGYPSLFWYVQYPGEGLQLLLKATKADDKGSNKGFEATYRKETTSFHLEKGSVQVSDSAVYFCALTNDYKLSFGAGTTVTVRA
Vbeta: DAMVIQNPRYQVTQFGKPVTLSCSQTLNHNVMYWYQQKSSQAPKLLFHYYDKDFNNEADTPDNFQSRRPNTSFCFLDIRSPGLGDAAMYLCATSRGGRYNEQFFGPGTRLTVL
For B1, the binding result is on record as “recognises”.

B2: MAGE-B2-231 C5 TCR (TCR, V domains shown)
Valpha: KNQVEQSPQSLIILEGKNCTLQCNYTVSPFSNLRWYKQDTGRGPVSLTIMTFSENTKSNGRYTATLDADTKQSSLHITASQLSDSASYICVVISGFQKLVFGTGTRLLVSP
Vbeta: EAGVVQSPRYKIIEKKQPVAFWCNPISGHNTLYWYRQNLGQGPELLIRYENEEAVDDSQLPKDRFSAERLKGVDSTLKIQPAELGDSAVYLCASSFPKQGSYNEQFFGPGTRLTVL
Regarding B2, the binding result is “recognises”.
